Source: patent US20040147436A1

How the values were obtained:
[1] = molecular target: Some FVIII derivatives; experiment: cell-based or functional assay
[2] = test system: FVIII derivatives
[3] = test system: T1, dBN(64-53) FVIII derivative
T1 sequence: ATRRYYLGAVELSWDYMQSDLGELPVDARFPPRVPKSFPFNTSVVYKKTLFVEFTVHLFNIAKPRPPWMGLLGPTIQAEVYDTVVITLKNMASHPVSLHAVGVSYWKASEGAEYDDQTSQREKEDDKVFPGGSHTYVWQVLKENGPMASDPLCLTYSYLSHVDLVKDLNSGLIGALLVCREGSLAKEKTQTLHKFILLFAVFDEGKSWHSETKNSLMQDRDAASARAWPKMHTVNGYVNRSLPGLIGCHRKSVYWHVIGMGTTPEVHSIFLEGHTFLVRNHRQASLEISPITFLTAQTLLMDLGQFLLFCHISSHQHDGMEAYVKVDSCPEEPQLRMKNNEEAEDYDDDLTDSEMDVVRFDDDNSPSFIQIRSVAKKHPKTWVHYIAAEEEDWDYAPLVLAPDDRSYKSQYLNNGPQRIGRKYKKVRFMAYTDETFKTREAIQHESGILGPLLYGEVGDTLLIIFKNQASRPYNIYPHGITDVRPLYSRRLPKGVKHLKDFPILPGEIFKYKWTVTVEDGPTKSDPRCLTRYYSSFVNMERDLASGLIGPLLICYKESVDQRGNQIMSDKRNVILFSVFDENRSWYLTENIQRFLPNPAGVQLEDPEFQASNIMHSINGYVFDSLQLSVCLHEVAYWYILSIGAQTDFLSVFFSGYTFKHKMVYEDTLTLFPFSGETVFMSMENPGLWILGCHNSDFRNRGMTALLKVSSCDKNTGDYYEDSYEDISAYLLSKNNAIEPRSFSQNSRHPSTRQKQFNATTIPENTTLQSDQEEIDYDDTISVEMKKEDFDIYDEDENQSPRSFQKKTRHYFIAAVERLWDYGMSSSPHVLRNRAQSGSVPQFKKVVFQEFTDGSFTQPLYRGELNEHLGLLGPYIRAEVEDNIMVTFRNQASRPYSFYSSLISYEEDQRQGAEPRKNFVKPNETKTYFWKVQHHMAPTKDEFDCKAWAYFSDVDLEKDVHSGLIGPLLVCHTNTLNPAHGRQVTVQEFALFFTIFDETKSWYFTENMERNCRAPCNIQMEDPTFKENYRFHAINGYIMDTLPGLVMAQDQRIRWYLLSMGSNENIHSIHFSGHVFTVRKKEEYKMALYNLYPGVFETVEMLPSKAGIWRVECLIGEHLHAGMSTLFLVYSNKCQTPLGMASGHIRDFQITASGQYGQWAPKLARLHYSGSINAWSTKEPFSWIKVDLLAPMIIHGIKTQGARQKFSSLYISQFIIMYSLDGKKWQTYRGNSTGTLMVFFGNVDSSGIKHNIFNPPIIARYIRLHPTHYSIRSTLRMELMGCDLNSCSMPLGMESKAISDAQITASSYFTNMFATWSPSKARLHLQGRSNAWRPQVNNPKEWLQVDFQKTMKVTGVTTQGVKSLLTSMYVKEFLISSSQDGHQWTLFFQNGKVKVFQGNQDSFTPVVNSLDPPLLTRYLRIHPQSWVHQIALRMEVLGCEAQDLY

[4] = test system: T2, dBN(64-56) FVIII derivative
T2 sequence: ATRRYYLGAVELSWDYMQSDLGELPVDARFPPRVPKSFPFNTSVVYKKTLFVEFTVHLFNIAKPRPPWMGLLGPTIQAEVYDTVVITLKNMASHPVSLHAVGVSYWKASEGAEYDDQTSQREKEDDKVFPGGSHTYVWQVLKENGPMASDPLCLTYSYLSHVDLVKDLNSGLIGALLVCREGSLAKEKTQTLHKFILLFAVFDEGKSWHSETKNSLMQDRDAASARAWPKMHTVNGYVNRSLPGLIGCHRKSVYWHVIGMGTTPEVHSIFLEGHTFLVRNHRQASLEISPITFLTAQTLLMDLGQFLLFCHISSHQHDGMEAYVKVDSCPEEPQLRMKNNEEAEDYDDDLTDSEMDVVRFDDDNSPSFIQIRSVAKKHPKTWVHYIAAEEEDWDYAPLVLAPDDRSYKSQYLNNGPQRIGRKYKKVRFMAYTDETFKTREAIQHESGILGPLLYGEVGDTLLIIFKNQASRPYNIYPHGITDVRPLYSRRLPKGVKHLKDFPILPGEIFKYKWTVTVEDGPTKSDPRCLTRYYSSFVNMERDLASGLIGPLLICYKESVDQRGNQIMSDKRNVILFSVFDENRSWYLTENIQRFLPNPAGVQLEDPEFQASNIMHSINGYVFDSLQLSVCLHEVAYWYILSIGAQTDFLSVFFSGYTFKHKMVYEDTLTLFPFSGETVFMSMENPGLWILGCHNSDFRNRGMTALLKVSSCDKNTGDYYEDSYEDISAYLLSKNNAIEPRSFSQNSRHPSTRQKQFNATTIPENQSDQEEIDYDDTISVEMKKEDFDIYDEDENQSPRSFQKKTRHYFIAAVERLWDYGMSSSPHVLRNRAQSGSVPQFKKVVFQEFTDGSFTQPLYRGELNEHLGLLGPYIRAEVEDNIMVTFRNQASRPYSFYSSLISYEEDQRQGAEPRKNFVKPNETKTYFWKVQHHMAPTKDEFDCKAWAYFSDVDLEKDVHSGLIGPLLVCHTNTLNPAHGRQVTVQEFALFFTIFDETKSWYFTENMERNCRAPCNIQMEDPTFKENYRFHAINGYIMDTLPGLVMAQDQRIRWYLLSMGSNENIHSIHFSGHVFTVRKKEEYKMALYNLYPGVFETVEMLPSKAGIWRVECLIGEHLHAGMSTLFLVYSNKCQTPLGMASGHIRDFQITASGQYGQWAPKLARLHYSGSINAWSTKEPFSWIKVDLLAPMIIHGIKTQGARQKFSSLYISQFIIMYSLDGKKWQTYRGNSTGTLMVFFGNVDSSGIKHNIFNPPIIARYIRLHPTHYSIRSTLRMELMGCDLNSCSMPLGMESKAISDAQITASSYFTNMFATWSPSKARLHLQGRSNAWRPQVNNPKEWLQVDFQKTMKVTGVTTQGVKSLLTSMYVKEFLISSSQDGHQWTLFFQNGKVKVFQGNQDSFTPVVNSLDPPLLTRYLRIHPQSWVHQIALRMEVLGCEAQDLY

Row | activation by thrombin, measured in a classical coagulation test (APTT) [1] | Substance | thrombin cleavage of 35S-labeled immunoprecipitated protein, SDS-PAGE [2] | activation by thrombin, measured in a classical coagulation test (APTT) [3] | activation by thrombin, measured in a classical coagulation test (APTT) [4]
1 | 7 fold | thrombin (enzyme) | – | – | –
2 | – | thrombin | Analysis of the radiolabeled protein after thrombin digestion indicated a normal appearance of the 73 kD, and 50 and 40 kd fragments | are activated in the same manner as rh FVIII | are activated in the same manner as rh FVIII
